Data reported in patent publication US20210292396A1.

Legend:
Experiment in all cases: cell-based or functional assay
[1] = biological target: Env of HIV isolate Bal.01 (clade B) (HIV)
[2] = biological target: Env of HIV isolate 3016.v5.c45 (clade D) (HIV)
[3] = biological target: Env of HIV isolate CH181.12 (clade BC) (HIV)
[4] = biological target: Env of HIV isolate SS1196.01 (clade B) (HIV)
[5] = biological target: Env of HIV isolate 246-F3.C10.2 (clade AC) (HIV)
[6] = biological target: HIV Env of isolate 6471.v1.c16 (HIV)
[7] = biological target: HIV Env of isolate 0013095-2.11 (HIV)
[8] = biological target: Env of HIV isolate 6535.3 (clade B) (HIV)
[9] = biological target: Env of HIV isolate T278-50 (clade AG) (HIV)
[10] = biological target: Env of HIV isolate 3718.v3.c11 (clade A) (HIV)
[11] = biological target: Env of HIV isolate T33-7 (clade AG) (HIV)
[12] = biological target: HIV Env of isolate ZM55.28a (HIV)
[13] = biological target: HIV Env of isolate X2131.C1.B5 (HIV)
[14] = biological target: HIV Env of isolate 6785.v5.c14 (HIV)
[15] = biological target: HIV Env of isolate TV1.29 (HIV)
[16] = biological target: Env of HIV isolate ZM233.6 (clade C) (HIV)
[17] = biological target: Env of HIV isolate C4118.09 (clade AE) (HIV)
[18] = biological target: Envelope protein of SIVmac251.30.SG3 (clade NA)
[19] = biological target: Env of HIV isolate T250-4 (clade AG) (HIV)
[20] = biological target: Env of HIV isolate TZBD.02 (clade C) (HIV)
[21] = biological target: Env of HIV isolate CNE20 (clade BC) (HIV)
[22] = biological target: HIV Env of isolate DU172.17 (HIV)
[23] = biological target: Env of HIV isolate ZM214.15 (clade C) (HIV)
[24] = biological target: Env of HIV isolate 3326.v4.c3 (clade CD) (HIV)
[25] = biological target: HIV Env of isolate 191821.E6.1 (HIV)
[26] = biological target: Env of HIV isolate 0815.v3.c3 (clade ACD) (HIV)
[27] = biological target: Env of HIV isolate BB539.2B13 (clade A) (HIV)
[28] = biological target: Env of HIV isolate BJOX010000.06.2 (clade AE) (HIV)
[29] = biological target: Env of HIV isolate CNE4 (clade B) (HIV)
[30] = biological target: Env of HIV isolate 6471.v1.c16 (clade C) (HIV)
[31] = biological target: Env of HIV isolate UG037.8 (clade A) (HIV)
[32] = biological target: Env of HIV isolate A07412M1.vrc12 (clade D) (HIV)
[33] = biological target: 208-member cross-clade virus panel
[34] = biological target: Env of HIV isolate CNE10 (clade B) (HIV)
[35] = biological target: Env of HIV isolate 263-8 (clade AG) (HIV)
[36] = biological target: Env of HIV isolate SO18.18 (clade C) (HIV)
[37] = biological target: Env of HIV isolate DU151.02 (clade C) (HIV)
[38] = biological target: Env of HIV isolate 16936-2.21 (clade C) (HIV)
[39] = biological target: Env of HIV isolate AC10.29 (clade B) (HIV)
[40] = biological target: Env of HIV isolate 3468.v1.c12 (clade AD) (HIV)
[41] = biological target: Env of HIV isolate MB539.2B7 (clade A) (HIV)
[42] = biological target: HIV Env of isolate ZM214.15 (HIV)
[43] = biological target: HIV Env of isolate TZA125.17 (HIV)

B1: ePGT121.18 (ePGT121.18.H1 VH and ePGT121.17.L1 VL) (antibody, V domains shown)
VH: QMQLQESGPGLVKPGETLSLTCSVSGASISSSYWSWLRETPGKGLEWIGYTHHSGDTNYAPSLKSRVHLGLHPSKNQVSLSLTSVTAADTAVYYCARTLHGRRIYGVVAFNEYYTYFYWPTWGKGTQVTVSS
VL: SDISVAPGETVRITCGGESIGSRAVQWYQHRPGQAPRLIIYNNQDRPPGIPERFSGSPDIDFGTTATLTISNVEAGDEATYYCHIWDSRRPTNWELGPGTTLTVL
[1]
  IC50, pseudovirus neutralization: 2 ng/mL
[2]
  IC50, pseudovirus neutralization: > 50 µg/mL
[3]
  IC50, pseudovirus neutralization: 1 ng/mL
[4]
  IC50, pseudovirus neutralization: 2 ng/mL
[5]
  IC50, pseudovirus neutralization: 4.8 µg/mL
[6]
  IC80, pseudovirus neutralization (M1): 2.94 µg/mL
  IC80, pseudovirus neutralization (M2): 2.62 µg/mL
[7]
  IC80, pseudovirus neutralization (M1): 4.21 µg/mL
  IC80, pseudovirus neutralization (M2): 2.16 µg/mL
[8]
  IC50, pseudovirus neutralization: 1 ng/mL
[9]
  IC50, pseudovirus neutralization: 1.17 µg/mL
[10]
  IC50, pseudovirus neutralization: 0.267 µg/mL
[11]
  IC50, pseudovirus neutralization: > 50 µg/mL
[12]
  IC80, pseudovirus neutralization (M1): 0.014 µg/mL
  IC80, pseudovirus neutralization (M2): 0.014 µg/mL
[13]
  IC80, pseudovirus neutralization (M1): 2 ng/mL
  IC80, pseudovirus neutralization (M2): 3 ng/mL
[14]
  IC80, pseudovirus neutralization (M1): 6 ng/mL
  IC80, pseudovirus neutralization (M2): 6 ng/mL
[15]
  IC80, pseudovirus neutralization (M1): 5 ng/mL
  IC80, pseudovirus neutralization (M2): 8 ng/mL
[16]
  IC50, pseudovirus neutralization: 6 ng/mL
[17]
  IC50, pseudovirus neutralization: > 50 µg/mL
[18]
  IC50, pseudovirus neutralization: > 50 µg/mL
[19]
  IC50, pseudovirus neutralization: 0.8 ng/mL
[20]
  IC50, pseudovirus neutralization: 2 ng/mL
[21]
  IC50, pseudovirus neutralization: 1 ng/mL
[22]
  IC80, pseudovirus neutralization (M1): 5 ng/mL
  IC80, pseudovirus neutralization (M2): 5 ng/mL
[23]
  IC50, pseudovirus neutralization: 0.018 µg/mL
[24]
  IC50, pseudovirus neutralization: 0.306 µg/mL
[25]
  IC80, pseudovirus neutralization (M1): 0.095 µg/mL
  IC80, pseudovirus neutralization (M2): 0.105 µg/mL
[26]
  IC50, pseudovirus neutralization: 1 ng/mL
[27]
  IC50, pseudovirus neutralization: > 50 µg/mL
[28]
  IC50, pseudovirus neutralization: > 50 µg/mL
[29]
  IC50, pseudovirus neutralization: 2 ng/mL
[30]
  IC50, pseudovirus neutralization: 0.378 µg/mL
[31]
  IC50, pseudovirus neutralization: 2 ng/mL
[32]
  IC50, pseudovirus neutralization: 3 ng/mL
[33]
  % vs Neutralized, IC50 < 0.01 ug/ml: 56%
  % vs Neutralized, IC50 < 0.1 ug/ml: 66%
  % vs Neutralized, IC50 < 1.0 ug/ml: 71%
  % vs Neutralized, IC50 < 10 ug/ml: 76%
  % vs Neutralized, IC50 < 50 ug/ml: 78%
  % vs Neutralized, IC80 < 0.01 ug/ml (M1): 43.8%
  % vs Neutralized, IC80 < 0.01 ug/ml (M2): 38.5%
  % vs Neutralized, IC80 < 0.1 ug/ml (M1): 60.6%
  % vs Neutralized, IC80 < 0.1 ug/ml (M2): 59.6%
  % vs Neutralized, IC80 < 1.0 ug/ml (M1): 65.9%
  % vs Neutralized, IC80 < 1.0 ug/ml (M2): 65.9%
  % vs Neutralized, IC80 < 10 ug/ml (M1): 70.7%
  % vs Neutralized, IC80 < 10 ug/ml (M2): 69.7%
  % vs Neutralized, IC80 < 50 ug/ml (M1): 73.1%
  % vs Neutralized, IC80 < 50 ug/ml (M2): 72.6%
  Geometric Mean (IC50): 8.1 ng/mL
  Geometric Mean IC80 (M1): 0.0177 µg/mL
  Geometric Mean IC80 (M2): 0.0202 µg/mL
  Median IC50: 3 ng/mL
  Median IC80 (M1): 7 ng/mL
  Median IC80 (M2): 8 ng/mL
  Total VS Neutralized, IC50 < 0.01 ug/ml (viruses of 208): 116
  Total VS Neutralized, IC50 < 0.1 ug/ml (viruses of 208): 137
  Total VS Neutralized, IC50 < 1.0 ug/ml (viruses of 208): 148
  Total VS Neutralized, IC50 < 10 ug/ml (viruses of 208): 159
  Total VS Neutralized, IC50 < 50 ug/ml (viruses of 208): 162
  Total VS Neutralized, IC80 < 0.01 ug/ml (M1) (viruses of 208): 91
  Total VS Neutralized, IC80 < 0.01 ug/ml (M2) (viruses of 208): 80
  Total VS Neutralized, IC80 < 0.1 ug/ml (M1) (viruses of 208): 126
  Total VS Neutralized, IC80 < 0.1 ug/ml (M2) (viruses of 208): 124
  Total VS Neutralized, IC80 < 1.0 ug/ml (M1) (viruses of 208): 137
  Total VS Neutralized, IC80 < 1.0 ug/ml (M2) (viruses of 208): 137
  Total VS Neutralized, IC80 < 10 ug/ml (M1) (viruses of 208): 147
  Total VS Neutralized, IC80 < 10 ug/ml (M2) (viruses of 208): 145
  Total VS Neutralized, IC80 < 50 ug/ml (M1) (viruses of 208): 152
  Total VS Neutralized, IC80 < 50 ug/ml (M2) (viruses of 208): 151
[34]
  IC50, pseudovirus neutralization: 2 ng/mL
[35]
  IC50, pseudovirus neutralization: 4 ng/mL
[36]
  IC50, pseudovirus neutralization: 3 ng/mL
[37]
  IC50, pseudovirus neutralization: 1 ng/mL
[38]
  IC50, pseudovirus neutralization: 2 ng/mL
[39]
  IC50, pseudovirus neutralization: 1 ng/mL
[40]
  IC50, pseudovirus neutralization: 1 ng/mL
[41]
  IC50, pseudovirus neutralization: > 50 µg/mL
[42]
  IC80, pseudovirus neutralization (M1): 0.053 µg/mL
  IC80, pseudovirus neutralization (M2): 0.067 µg/mL
[43]
  IC80, pseudovirus neutralization (M1): 0.137 µg/mL
  IC80, pseudovirus neutralization (M2): 0.186 µg/mL
